Measurements from article PMC2115109.
pKd: −log10 of the molar value. “And” between values parts separate entries of the source, which are not always exact repeats. Equal values may be shown once.

Assays:
[1] = biological target: F-actin (actin filaments) from rabbit skeletal muscle (rabbit) (UniProt P68135); assay: co-sedimentation
[2] = biological target: monomeric actin from rabbit skeletal muscle (rabbit) (UniProt P68135); assay: pull-down

Sequence of CT28N, 28-kD chymotryptic fragment from the NH2-terminal half of human plasma gelsolin (domain or fragment) (P06396 151-406): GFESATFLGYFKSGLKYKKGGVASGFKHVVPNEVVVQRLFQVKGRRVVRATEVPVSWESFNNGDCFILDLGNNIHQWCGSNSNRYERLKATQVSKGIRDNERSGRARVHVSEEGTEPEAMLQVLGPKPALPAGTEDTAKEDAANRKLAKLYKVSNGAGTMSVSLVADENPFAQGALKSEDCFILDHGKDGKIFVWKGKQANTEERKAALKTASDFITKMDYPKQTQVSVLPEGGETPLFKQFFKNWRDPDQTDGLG
Sequence of CT45N, 45-kD NH2-terminal half chymotryptic fragment of human plasma gelsolin (domain or fragment) (P06396 1-406): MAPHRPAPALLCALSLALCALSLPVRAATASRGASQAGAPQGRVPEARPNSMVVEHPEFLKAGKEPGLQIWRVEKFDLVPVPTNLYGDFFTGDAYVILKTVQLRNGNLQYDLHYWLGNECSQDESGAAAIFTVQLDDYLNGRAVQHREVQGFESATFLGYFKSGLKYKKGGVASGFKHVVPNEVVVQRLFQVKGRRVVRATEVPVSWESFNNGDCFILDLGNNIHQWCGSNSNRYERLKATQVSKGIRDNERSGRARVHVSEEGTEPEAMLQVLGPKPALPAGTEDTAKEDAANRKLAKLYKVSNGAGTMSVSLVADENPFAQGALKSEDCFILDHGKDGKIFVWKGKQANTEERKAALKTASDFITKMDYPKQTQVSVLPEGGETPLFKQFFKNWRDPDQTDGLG

| Substance | percent sedimented [1] [%] | radioactivity on the beads [2] [cpm] | Ka [1] [M⁻¹] | pKd [1] | percent of input sedimented [1] [%] |
| --- | --- | --- | --- | --- | --- |
| CT45N, 45-kD NH2-terminal half chymotryptic fragment of human plasma gelsolin (domain or fragment) | 67 | 540 | – | – | – |
| CT28N, 28-kD chymotryptic fragment from the NH2-terminal half of human plasma gelsolin (domain or fragment) | 100 | – | 5e+06 | 6.70 and 6.55 | 100 |
